In US20220119536A1:

Molecular target: human VEGF-A (human) (UniProt P15692)
Experiment: cell-based or functional assay

Chain of human VEGF-A (human) (P15692 other isoform, or with tags, fused parts or gaps limits assumed): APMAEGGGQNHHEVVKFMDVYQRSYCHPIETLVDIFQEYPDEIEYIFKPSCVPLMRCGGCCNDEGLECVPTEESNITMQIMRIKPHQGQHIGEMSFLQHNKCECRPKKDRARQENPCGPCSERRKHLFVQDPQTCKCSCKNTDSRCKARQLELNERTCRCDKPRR
Chain of EYLEA® (aflibercept) (Fc fusion) (chain): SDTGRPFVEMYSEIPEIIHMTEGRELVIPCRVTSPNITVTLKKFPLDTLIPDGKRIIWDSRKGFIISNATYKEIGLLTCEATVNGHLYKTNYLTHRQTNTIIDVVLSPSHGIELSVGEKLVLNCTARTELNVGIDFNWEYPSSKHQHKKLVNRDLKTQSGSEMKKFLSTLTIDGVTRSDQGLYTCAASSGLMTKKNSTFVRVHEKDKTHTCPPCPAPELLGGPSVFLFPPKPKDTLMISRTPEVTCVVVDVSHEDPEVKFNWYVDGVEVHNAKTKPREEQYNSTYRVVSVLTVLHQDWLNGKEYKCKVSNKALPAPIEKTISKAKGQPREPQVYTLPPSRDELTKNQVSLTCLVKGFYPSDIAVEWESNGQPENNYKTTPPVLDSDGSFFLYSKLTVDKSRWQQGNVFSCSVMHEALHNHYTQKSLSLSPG

EYLEA® (aflibercept) (Fc fusion) gave an ERK1/2 phosphorylation: Bottom plateau (AlphaLISA counts) (AlphaLISA counts) of 21700, an ERK1/2 phosphorylation: Top plateau (AlphaLISA counts) (AlphaLISA counts) of 109000 and an HRMEC proliferation Delta (area under the curve vs. basal): Bottom plateau (arbitrary units) (arbitrary units) of 13.3. For the same substance, the HRMEC proliferation Delta (area under the curve vs. basal): IC50 (pM) was 171 pM, the HRMEC proliferation Delta (area under the curve vs. basal): LogIC50 was -9.77 and the HRMEC proliferation Delta (area under the curve vs. basal): Top plateau (arbitrary units) (arbitrary units) was 129. It also gave an IC50, inhibition of VEGF-induced p38 MAPK phosphorylation of 0.74 nM, a Src phosphorylation (Y419): Bottom plateau (AlphaLISA counts) (AlphaLISA counts) of 2210 and a Src phosphorylation (Y419): IC50 of 0.933 nM. It also gave a Src phosphorylation (Y419): LogIC50 of -9.37, a Src phosphorylation (Y419): Top plateau (AlphaLISA counts) (AlphaLISA counts) of 3420 and a concentration for full inhibition of VEGF-induced HRMEC proliferation greater than 16 nM. The p38-MAPK phosphorylation (T180/Y182): Bottom plateau (AlphaLISA counts) (AlphaLISA counts) was 8890, the p38-MAPK phosphorylation (T180/Y182): IC50 was 0.748 nM and the p38-MAPK phosphorylation (T180/Y182): LogIC50 was -9.13. It also gave a p38-MAPK phosphorylation (T180/Y182): Top plateau (AlphaLISA counts) (AlphaLISA counts) of 23100.
